Results taken from the supplement of paper PMC12764529.
± gives the half width of the 95% confidence interval.

Assay: folding stability dG unfold (combined trypsin and chymotrypsin); higher = more stable
Outline: (§1)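 Unfolding free energy was derived, per protease or combined, against a sequence-predicted unfolded-state K50 and a shared folded-state K50, starting from K50 inferred by Bayesian fitting of sequencing counts. Digestion with trypsin and chymotrypsin was carried out on designed mini-proteins under 80 residues without cysteine in a PA-tagged cDNA display construct. Only designs with AlphaFold2 dimer inter-PAE above 15 were kept.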

| Sequence | folding stability dG unfold |
| --- | --- |
| SAGGSAGGSPPPIEIRFPNGWEIDKIDPDDAHIILRMPNWIISIEIDPKDGEIDIDIVPNADVSAGGSAGGS [r12_243_TrROS] | 1.71 ± 0.27 kcal/mol |
| SAGGELSEEFVKKLFENLGFEELEVVDLENKKVAYFRKGNYLVKVYDDGTIEIFDENGELVETINVDSAGGS [r8_147_TrMRF] | 3.48 ± 0.19 kcal/mol |
| SAGGMATITVTSDGVLKVTFVDPATGSPVKTIPLPLSEVEQLGAEKGSPLSLEEILKELGYPTEITLGSAGG [r13_836_JUSTAS] | 1.51 ± 0.045 kcal/mol |
| SAGPEPDWVYIKAKVDKGGIKIEWYNPDGPWEFKLPDGEEIYIFIPPGGSPEDMLDEFKNFAKELADKSAGG [r19_170_TrROS] | 2.18 ± 0.71 kcal/mol |
| SAGGSAKWVLVRIELEKGGKPLEFYQRVKAKEPELDIKIPPGIEEEGFKILRIEVEEISPEELEKESAGGSA [r15_853_TrMRF] | 1.18 ± 0.15 kcal/mol |
| SAGGSAGGGKVLLEIYVPSEVPSVEELVEKLESEGFEVVKVESVPEGDYVRILVEKDVPPESIESAGGSAGG [r6_601_TrMRF] | 1.57 ± 0.11 kcal/mol |
| SAGGPLRIHISIENPNGKTLTYQIPLPPGDPEEAVKEIADEMKERGGTITSIEIENGVITITVRIPPSAGGS [r16_662_TrROS] | 2.8 ± 0.075 kcal/mol |
| SAGKAIFTVVPIIPKTGKKYSISKFEITLKEGEKIPIKAIADKIPPKNYIVETEIHPDHIHVTVYVLDGSAG [r5_269_TrMRF] | 1.25 ± 0.17 kcal/mol |
| SRKISIWIPPDDPMMTPEEIANKLAQQGYPVEIDDVEWNPENGWVVITVEIEEPNGEPIADIEVWIPWNDSA [r9_879_TrROS] | 1.65 ± 0.19 kcal/mol |
| SAGGSAGGSAGGSMVVEFSVGDTPIATIPFPGTEEEAKAAVEKLKEEYPSAEVKFTVHDESAGGSAGGSAGG [r7_81_JUSTAS] | 0.342 ± 0.14 kcal/mol |
| SAGGSAGGSAGGMPVIEIPIRPDPNGKPRSAEEIASKIKDRFGYPVKIVSVENNHITITVSAGGSAGGSAGG [r17_426_TrROS] | 0.707 ± 0.18 kcal/mol |
| SAGGGIVEKIKKIIKEAGYKAKVEESEDGIHIVVEAPIEAGKVLEKKIKEATGKEIKIEYVPPGKGASAGGS [r16_514_TrMRF] | 3.25 ± 0.16 kcal/mol |
| SAGGSEWQPIYEFDLPGKKIKVYMPPDGNYRIEVEKKGKPVNFWVPPNMSPSSIDNMLDQAKEQLNSAGGSA [r2_243_TrROS] | 0.343 ± 0.26 kcal/mol |
| SAGGSAGGSAGKKKKKKPKKVKSVKIKITIKNKNGEKKEITVTFNKDGKLTLEEIKKLLKSAGGSAGGSAGG [r11_759_TrROS_Hall] | 2.28 ± 0.21 kcal/mol |
| SAGGYEKKTIRIEATPEELENLLKELREKYPDLKVEVKVVKVEKKENDPNVSPKDKKVYLEITVVKPKPSAG [r5_437_TrROS_Hall] | 1.88 ± 0.17 kcal/mol |
| SAGGKDIKVTVEKVGDELYILVEASKEEVEALLKAGKKEITIEINGKKVKVKAVKLPDGTVLFRVRLESAGG [r13_171_TrROS_Hall] | 3.96 ± 0.065 kcal/mol |
| SALPYEVEKTSETFLPEEGLTVTEYKITLPDGSELYRRETFDPKTGVRTVTVYDPNGKKLETRTFTVPPSAG [r14_759_JUSTAS] | 2.4 ± 0.046 kcal/mol |

Assay: folding stability dG unfold from trypsin proteolysis; higher = more stable
Outline: as §1

| Sequence | folding stability dG unfold |
| --- | --- |
| SAGGSAGGSPPPIEIRFPNGWEIDKIDPDDAHIILRMPNWIISIEIDPKDGEIDIDIVPNADVSAGGSAGGS [r12_243_TrROS] | 1.15 ± 0.1 kcal/mol |
| SAGGELSEEFVKKLFENLGFEELEVVDLENKKVAYFRKGNYLVKVYDDGTIEIFDENGELVETINVDSAGGS [r8_147_TrMRF] | 2.26 ± 0.12 kcal/mol |
| SAGGMATITVTSDGVLKVTFVDPATGSPVKTIPLPLSEVEQLGAEKGSPLSLEEILKELGYPTEITLGSAGG [r13_836_JUSTAS] | 1.52 ± 0.059 kcal/mol |
| SAGPEPDWVYIKAKVDKGGIKIEWYNPDGPWEFKLPDGEEIYIFIPPGGSPEDMLDEFKNFAKELADKSAGG [r19_170_TrROS] | 1.41 ± 0.22 kcal/mol |
| SAGGSAKWVLVRIELEKGGKPLEFYQRVKAKEPELDIKIPPGIEEEGFKILRIEVEEISPEELEKESAGGSA [r15_853_TrMRF] | 0.864 ± 0.04 kcal/mol |
| SAGGSAGGGKVLLEIYVPSEVPSVEELVEKLESEGFEVVKVESVPEGDYVRILVEKDVPPESIESAGGSAGG [r6_601_TrMRF] | 1.28 ± 0.066 kcal/mol |
| SAGGPLRIHISIENPNGKTLTYQIPLPPGDPEEAVKEIADEMKERGGTITSIEIENGVITITVRIPPSAGGS [r16_662_TrROS] | 2.32 ± 0.059 kcal/mol |
| SAGKAIFTVVPIIPKTGKKYSISKFEITLKEGEKIPIKAIADKIPPKNYIVETEIHPDHIHVTVYVLDGSAG [r5_269_TrMRF] | 0.665 ± 0.08 kcal/mol |
| SRKISIWIPPDDPMMTPEEIANKLAQQGYPVEIDDVEWNPENGWVVITVEIEEPNGEPIADIEVWIPWNDSA [r9_879_TrROS] | 1.83 ± 0.098 kcal/mol |
| SAGGSAGGSAGGSMVVEFSVGDTPIATIPFPGTEEEAKAAVEKLKEEYPSAEVKFTVHDESAGGSAGGSAGG [r7_81_JUSTAS] | 0.471 ± 0.031 kcal/mol |
| SAGGSAGGSAGGMPVIEIPIRPDPNGKPRSAEEIASKIKDRFGYPVKIVSVENNHITITVSAGGSAGGSAGG [r17_426_TrROS] | 0.166 ± 0.076 kcal/mol |
| SAGGGIVEKIKKIIKEAGYKAKVEESEDGIHIVVEAPIEAGKVLEKKIKEATGKEIKIEYVPPGKGASAGGS [r16_514_TrMRF] | 2.21 ± 0.19 kcal/mol |
| SAGGSEWQPIYEFDLPGKKIKVYMPPDGNYRIEVEKKGKPVNFWVPPNMSPSSIDNMLDQAKEQLNSAGGSA [r2_243_TrROS] | -0.0661 ± 0.25 kcal/mol |
| SAGGSAGGSAGKKKKKKPKKVKSVKIKITIKNKNGEKKEITVTFNKDGKLTLEEIKKLLKSAGGSAGGSAGG [r11_759_TrROS_Hall] | 2.22 ± 0.056 kcal/mol |
| SAGGYEKKTIRIEATPEELENLLKELREKYPDLKVEVKVVKVEKKENDPNVSPKDKKVYLEITVVKPKPSAG [r5_437_TrROS_Hall] | 1.39 ± 0.12 kcal/mol |
| SAGGKDIKVTVEKVGDELYILVEASKEEVEALLKAGKKEITIEINGKKVKVKAVKLPDGTVLFRVRLESAGG [r13_171_TrROS_Hall] | 3.28 ± 0.064 kcal/mol |
| SALPYEVEKTSETFLPEEGLTVTEYKITLPDGSELYRRETFDPKTGVRTVTVYDPNGKKLETRTFTVPPSAG [r14_759_JUSTAS] | 2.19 ± 0.038 kcal/mol |

Assay: folding stability dG unfold from chymotrypsin proteolysis; higher = more stable
Outline: as §1

| Sequence | folding stability dG unfold |
| --- | --- |
| SAGGSAGGSPPPIEIRFPNGWEIDKIDPDDAHIILRMPNWIISIEIDPKDGEIDIDIVPNADVSAGGSAGGS [r12_243_TrROS] | 2.09 ± 0.32 kcal/mol |
| SAGGELSEEFVKKLFENLGFEELEVVDLENKKVAYFRKGNYLVKVYDDGTIEIFDENGELVETINVDSAGGS [r8_147_TrMRF] | 3.89 ± 0.053 kcal/mol |
| SAGGMATITVTSDGVLKVTFVDPATGSPVKTIPLPLSEVEQLGAEKGSPLSLEEILKELGYPTEITLGSAGG [r13_836_JUSTAS] | 1.48 ± 0.008 kcal/mol |
| SAGPEPDWVYIKAKVDKGGIKIEWYNPDGPWEFKLPDGEEIYIFIPPGGSPEDMLDEFKNFAKELADKSAGG [r19_170_TrROS] | 2.1 ± 0.21 kcal/mol |
| SAGGSAKWVLVRIELEKGGKPLEFYQRVKAKEPELDIKIPPGIEEEGFKILRIEVEEISPEELEKESAGGSA [r15_853_TrMRF] | 1.32 ± 0.18 kcal/mol |
| SAGGSAGGGKVLLEIYVPSEVPSVEELVEKLESEGFEVVKVESVPEGDYVRILVEKDVPPESIESAGGSAGG [r6_601_TrMRF] | 1.71 ± 0.15 kcal/mol |
| SAGGPLRIHISIENPNGKTLTYQIPLPPGDPEEAVKEIADEMKERGGTITSIEIENGVITITVRIPPSAGGS [r16_662_TrROS] | 2.97 ± 0.046 kcal/mol |
| SAGKAIFTVVPIIPKTGKKYSISKFEITLKEGEKIPIKAIADKIPPKNYIVETEIHPDHIHVTVYVLDGSAG [r5_269_TrMRF] | 1.61 ± 0.11 kcal/mol |
| SRKISIWIPPDDPMMTPEEIANKLAQQGYPVEIDDVEWNPENGWVVITVEIEEPNGEPIADIEVWIPWNDSA [r9_879_TrROS] | 1.6 ± 0.057 kcal/mol |
| SAGGSAGGSAGGSMVVEFSVGDTPIATIPFPGTEEEAKAAVEKLKEEYPSAEVKFTVHDESAGGSAGGSAGG [r7_81_JUSTAS] | 0.169 ± 0.075 kcal/mol |
| SAGGSAGGSAGGMPVIEIPIRPDPNGKPRSAEEIASKIKDRFGYPVKIVSVENNHITITVSAGGSAGGSAGG [r17_426_TrROS] | 0.983 ± 0.066 kcal/mol |
| SAGGGIVEKIKKIIKEAGYKAKVEESEDGIHIVVEAPIEAGKVLEKKIKEATGKEIKIEYVPPGKGASAGGS [r16_514_TrMRF] | 3.54 ± 0.25 kcal/mol |
| SAGGSEWQPIYEFDLPGKKIKVYMPPDGNYRIEVEKKGKPVNFWVPPNMSPSSIDNMLDQAKEQLNSAGGSA [r2_243_TrROS] | 0.339 ± 0.16 kcal/mol |
| SAGGSAGGSAGKKKKKKPKKVKSVKIKITIKNKNGEKKEITVTFNKDGKLTLEEIKKLLKSAGGSAGGSAGG [r11_759_TrROS_Hall] | 2.51 ± 0.12 kcal/mol |
| SAGGYEKKTIRIEATPEELENLLKELREKYPDLKVEVKVVKVEKKENDPNVSPKDKKVYLEITVVKPKPSAG [r5_437_TrROS_Hall] | 1.89 ± 0.13 kcal/mol |
| SAGGKDIKVTVEKVGDELYILVEASKEEVEALLKAGKKEITIEINGKKVKVKAVKLPDGTVLFRVRLESAGG [r13_171_TrROS_Hall] | 4.23 ± 0.052 kcal/mol |
| SALPYEVEKTSETFLPEEGLTVTEYKITLPDGSELYRRETFDPKTGVRTVTVYDPNGKKLETRTFTVPPSAG [r14_759_JUSTAS] | 2.49 ± 0.048 kcal/mol |
